Compound in data set [1]: Cn1ccc2c(c1=O)C(=O)c1nccc3c1c-2nc1ccccc13
As to the kind of experiment: Competitive inhibition of human topoisomerase 2alpha ATPase activity assessed as Km for ATP hydrolysis with DNA relaxation at 20 uM using supercoiled plasmid DNA as susbtrate after 1 hr by malachite green assay/Michelis-Menten kinetics analysis (reference value: 317.8 to 350.1 microM).

Compound in data set [2]: Cn1ccc2c(c1=O)C(=O)c1nccc3c1c-2nc1ccccc13
As to the kind of experiment: (§1) Competitive inhibition of human topoisomerase 2alpha ATPase activity assessed as Km for ATP hydrolysis with DNA relaxation at 10 uM using supercoiled plasmid DNA as susbtrate after 1 hr by malachite green assay/Michelis-Menten kinetics analysis (reference value: 317.8 to 350.1 microM).

Compound in data set [3]: COc1cc(NC(C)=O)c(O)c2nccc(-c3ccccc3NC(=O)c3ccccc3)c12
The description is as §1.

Compound in data set [4]: COc1cc(NC(C)=O)c(O)c2nccc(-c3ccccc3NC(=O)c3ccccc3)c12
As to the kind of experiment: Competitive inhibition of human topoisomerase 2alpha ATPase activity assessed as Km for ATP hydrolysis with DNA relaxation at 5 uM using supercoiled plasmid DNA as susbtrate after 1 hr by malachite green assay/Michelis-Menten kinetics analysis (reference value: 317.8 to 350.1 microM).

Compound in data set [5]: COc1cc(NC(C)=O)c(O)c2nccc(-c3ccccc3NC(=O)c3ccccc3)c12
As to the kind of experiment: Competitive inhibition of human topoisomerase 2alpha ATPase activity assessed as Vmax for ATP hydrolysis with DNA relaxation at 5 uM using supercoiled plasmid DNA as susbtrate after 1 hr by malachite green assay/Michelis-Menten kinetics analysis (reference value: 0.652 to 0.6529 pmol/s).

Compound in data set [6]: Cn1ccc2c(c1=O)C(=O)c1nccc3c1c-2nc1ccccc13
Description: Competitive inhibition of human topoisomerase 2alpha ATPase activity assessed as Vmax for ATP hydrolysis with DNA relaxation at 20 uM using supercoiled plasmid DNA as susbtrate after 1 hr by malachite green assay/Michelis-Menten kinetics analysis (reference value: 0.652 to 0.6529 pmol/s).

Compound in data set [7]: Cn1ccc2c(c1=O)C(=O)c1nccc3c1c-2nc1ccccc13
As to the kind of experiment: (§2) Competitive inhibition of human topoisomerase 2alpha ATPase activity assessed as Vmax for ATP hydrolysis with DNA relaxation at 10 uM using supercoiled plasmid DNA as susbtrate after 1 hr by malachite green assay/Michelis-Menten kinetics analysis (reference value: 0.652 to 0.6529 pmol/s).

Compound in data set [8]: COc1cc(NC(C)=O)c(O)c2nccc(-c3ccccc3NC(=O)c3ccccc3)c12
The data set is described as §2.

B1: DNA topoisomerase 2-alpha (Homo sapiens), P11388 (protein)
chain: MEVSPLQPVNENMQVNKIKKNEDAKKRLSVERIYQKKTQLEHILLRPDTYIGSVELVTQQMWVYDEDVGINYREVTFVPGLYKIFDEILVNAADNKQRDPKMSCIRVTIDPENNLISIWNNGKGIPVVEHKVEKMYVPALIFGQLLTSSNYDDDEKKVTGGRNGYGAKLCNIFSTKFTVETASREYKKMFKQTWMDNMGRAGEMELKPFNGEDYTCITFQPDLSKFKMQSLDKDIVALMVRRAYDIAGSTKDVKVFLNGNKLPVKGFRSYVDMYLKDKLDETGNSLKVIHEQVNHRWEVCLTMSEKGFQQISFVNSIATSKGGRHVDYVADQIVTKLVDVVKKKNKGGVAVKAHQVKNHMWIFVNALIENPTFDSQTKENMTLQPKSFGSTCQLSEKFIKAAIGCGIVESILNWVKFKAQVQLNKKCSAVKHNRIKGIPKLDDANDAGGRNSTECTLILTEGDSAKTLAVSGLGVVGRDKYGVFPLRGKILNVREASHKQIMENAEINNIIKIVGLQYKKNYEDEDSLKTLRYGKIMIMTDQDQDGSHIKGLLINFIHHNWPSLLRHRFLEEFITPIVKVSKNKQEMAFYSLPEFEEWKSSTPNHKKWKVKYYKGLGTSTSKEAKEYFADMKRHRIQFKYSGPEDDAAISLAFSKKQIDDRKEWLTNFMEDRRQRKLLGLPEDYLYGQTTTYLTYNDFINKELILFSNSDNERSIPSMVDGLKPGQRKVLFTCFKRNDKREVKVAQLAGSVAEMSSYHHGEMSLMMTIINLAQNFVGSNNLNLLQPIGQFGTRLHGGKDSASPRYIFTMLSSLARLLFPPKDDHTLKFLYDDNQRVEPEWYIPIIPMVLINGAEGIGTGWSCKIPNFDVREIVNNIRRLMDGEEPLPMLPSYKNFKGTIEELAPNQYVISGEVAILNSTTIEISELPVRTWTQTYKEQVLEPMLNGTEKTPPLITDYREYHTDTTVKFVVKMTEEKLAEAERVGLHKVFKLQTSLTCNSMVLFDHVGCLKKYDTVLDILRDFFELRLKYYGLRKEWLLGMLGAESAKLNNQARFILEKIDGKIIIENKPKKELIKVLIQRGYDSDPVKAWKEAQQKVPDEEENEESDNEKETEKSDSVTDSGPTFNYLLDMPLWYLTKEKKDELCRLRNEKEQELDTLKRKSPSDLWKEDLATFIEELEAVEAKEKQDEQVGLPGKGGKAKGKKTQMAEVLPSPRGQRVIPRITIEMKAEAEKKNKKKIKNENTEGSPQEDGVELEGLKQRLEKKQKREPGTKTKKQTTLAFKPIKKGKKRNPWSDSESDRSSDESNFDVPPRETEPRRAATKTKFTMDLDSDEDFSDFDEKTDDEDFVPSDASPPKTKTSPKLSNKELKPQKSVVSDLEADDVKGSVPLSSSPPATHFPDETEITNPVPKKNVTVKKTAAKSQSSTSTTGAKKRAAPKGTKRDPALNSGVSQKPDPAKTKNRRKRKPSTSDDSDSNFEKIVSKAVTSKKSKGESDDFHMDFDSAVAPRAKSVRAKKPIKYLEESDEDDLF
For orientation: Km means the substrate concentration at which the rate is half of its maximum. By Vmax is commonly meant the rate approached at saturating substrate. As to B1, the Km was determined as 651 µM in data set [1], 518 µM in data set [2], 387 µM in data set [3] and 380 µM in data set [4]. The Vmax stood at 0.65 pmol/s in data set [5], 0.65 pmol/s in data set [6], 0.657 pmol/s in data set [7] and 0.646 pmol/s in data set [8].

Source of the values: ChEMBL document CHEMBL4321838, “Drug Design Targeting T-Cell Factor-Driven Epithelial-Mesenchymal Transition as a Therapeutic Strategy for Colorectal Cancer” (J Med Chem, 2019).
